PMC3588154

Biological target: human von Willebrand factor (VWF) (human) (UniProt P04275)
Assay: SPR

recombinant factor VIII–Fc fusion protein (rFVIIIFc) (from UniProt P00451 1668-2351)
Kd: 0.34 nM | koff: 0.00089 s⁻¹ | kon: 2.6e+06 M⁻¹ s⁻¹

recombinant B-domain-deleted FVIII (rBDD FVIII) (from UniProt P00451 1668-2351) (natural protein)
Kd: 0.26 nM | koff: 0.00087 s⁻¹ | kon: 3.4e+06 M⁻¹ s⁻¹
